Data set [1] has as its target FAM-αC-conotoxin PrXA (Conus parius, UniProt P0C8S5 52-83). Nature of the data set: fluorescence anisotropy. As to conditions: tags: 5,6-carboxyfluorescein (FAM). Background: Fluorescence polarisation rises when a labelled molecule tumbles more slowly, as on binding a larger partner.
Data set [2] addresses αC-conotoxin PrXA (Conus parius, UniProt P0C8S5 52-83). As to the kind of experiment: SPR. As to conditions: tags: none; label: 5' biotin.

Usually Kd stands for the concentration at which binding is half-saturated. A high value points to weaker binding.

Sequence of FAM-αC-conotoxin PrXA (P0C8S5 52-83): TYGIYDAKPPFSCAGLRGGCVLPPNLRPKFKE
Sequence of αC-conotoxin PrXA (P0C8S5 52-83): as above

B1: A4 (ssDNA)
DNA: GCCTGTTGTGAGCCTCCTGTCGAAAATGCTGTTGTTTGAGTATCAATCAGACCGTTGAGCGTTTATTCTTGTCTCCC
On to B1, for which the Kd in data set [1] amounted to 246 ± 66.6 nM.

B2: B4 (ssDNA)
DNA: GCCTGTTGTGAGCCTCCTGTCGAATACGCACATACTGTGTACCTTGAATTTATATTGAGCGTTTATTCTTGTCTCCC
In data set [1], B2 came in with a Kd of 120 ± 21.3 nM.

B3: 5'-biotin B4 (ssDNA)
DNA: B2 DNA
Molecule B3 returned a Kd in data set [2] of 329 nM.

B4: D3 (ssDNA)
DNA: GCCTGTTGTGAGCCTCCTGTCGAAATCGGTCGTATAGGGTCGATTTGGTCGGCATTGAGCGTTTATTCTTGTCTCCC
On to B4, for which, in data set [1], binding was put at a Kd of 122 ± 25.3 nM.

B5: A5 (ssDNA)
DNA: GCCTGTTGTGAGCCTCCTGTCGAAGTGCAGGTCTATACAGGACAGTCTTCTGATTTGAGCGTTTATTCTTGTCTCCC
B5 returned a Kd in data set [1] of 184 ± 69.7 nM.

B6: D7 (ssDNA)
DNA: GCCTGTTGTGAGCCTCCTGTCGAATGCAGCATGGGGGATGTGCTCTTCCGCGTGTTGAGCGTTTATTCTTGTCTCCC
Turning to B6, the Kd in data set [1] was 238 ± 30.6 nM.

(Values after publication PMC5543128.)
